Test results published in patent US6713273B2, “High expression and production of high specific activity recombinant S-adenosyl homocysteinase (SAHH) and improved assays for S-adenosylmethionine (SAM)” (priority 2000, dated 2004).

Columns and labels:
[1] = SAHH activity measurement (SAH hydrolysis coupled to rHCYase, DBPDA readout); type: biochemical
Description: Assay buffer: 20 mM potassium phosphate, pH 8.0, 1 mM DTT, and 1 mM EDTA.
2 mM S-adenosyl-L-homocysteine (SAH)
L-homocysteine (various concentrations)
40 mM DBPDA, dissolved in 6 M HCl
40 mM potassium ferricyanide
Mix well and incubate at 37° C. for 10 min. and read absorbance at 675 nm or fluorescence at EX665 nm/EM690 nm. 1 unit is defined as 1 μmole of S-adenosylhomocysteine hydrolated in 1 min. at 37° C. in the presence of excess rHCYase.

[2] = Stability study of SAHH / His•SAHH; type: physicochemical; conditions: 45° for three days; FIGS. 2 and 5
Text: FIG. 2 contains the results of a stability study of SAHH.
FIG. 5 contains the results of a stability study of His•SAHH.
The SAHH enzyme of the invention has favorable properties. For instance, the SAHH has a high specific activity of at least […]. Further, the cloned SAHH of the invention provides a high expression of 20% of total cell protein. Moreover, SAHH produced according to the method of the invention has high stability as illustrated in the attached FIGS. 2 and 5.
The enzyme was formulated as follows: 20 mM potassium phosphate buffer, pH 7.6, 100 mM sodium chloride, 30% glycerol, 1 mM DTT, 1 mM NAD, and 1 mM EDTA.

B1: SAHH: Recombinant T. vaginalis S-adenosyl homocysteinase encoded by SEQ ID NO:1 (amino acid SEQ ID NO:7), expressed in E. coli (protein, listed as Homo sapiens)
chain: MACKSPTGAPFEYRIADINLHVLGRKELTLAEKEMPGLMVLRERYSASKPLKGVRISGSLHMTVQTAVLIETLTALGADVRWASCNIFSTQDTAAAAIVVGPTGTPEKPAGIPVFAWKGETLPEYWENTYRALTWPDGQGPQQVVDDGGDATLLISKGFEFETAGAVPEPTEADNLEYRCVLATLKQVFNQDKNHWHTVAAGMNGVSEETTTGVHRLYQLEKEGKLLFPAINVNDAVTKSKFDNIYGCRHSLIDGINRASDVMIGGKTALVMGYGDVGKGCAQSLRGQGARVIITELDPICALQAAMEGYQVRRIEEVVKDVDIFVTCTGNCDIISVDMMAQMKDKAIVGNIGHFDNEIDTDGLMKYPGIKHIPIKPEYDMWEFPDGHAILLLAEGRLLNLGCATGHPSFVMSMSFTNQTLAQLDLYEKRGNLEKKVYTLPKHLDEEVARLHLGSLDVHLTKLTQKQADYINVPVEGPYKSDAYRY
[1]; general statement on the SAHH of the invention
  specific activity: at least 1.5 U/ml
[1]; purified enzyme, 1 unit = 1 μmole SAH hydrolated in 1 min at 37° C. with excess rHCYase
  specific activity: 1.64 units/mg protein
[2]
  stability (activity loss): without activity loss
